Experiments:
human serum albumin = human serum albumin (Homo sapiens, UniProt P02768 P02768:25-609); assay: SPR; 250 nM HSA, no significant binding
Experimental: (§1) After conjugation of the cystamine moeities to phosphoramidate bonds at the 5′ phosphate group, the aptamer was immobilized on a gold chip by depositing an aliquot of 10 nL of aptamer solution at a concentration of 10 μM onto the surface of the chip. The gold reduces the cystamine to a pair of thiols and then catalyzes the reduction reaction that results in the covalent bond between the gold surface and the thiol groups of the modified aptamers.
(§2) Solutions of 200 μL of ICAM-1 protein or human serum albumin were flown over the gold chip at a concentration of 250 nM and a flow rate of 50 μL/min using an Openplex Surface Plasmon Resonance System (Horiba, Kyoto, Kyoto, Japan). Thus, the association phase lasted for 4 minutes after injection and was immediately followed by the disassociation phase. The total resonance of the negative control aptamer was subtracted from the total resonance observed for each of the candidate aptamers. The result corresponds to the resonance contribution due to the binding of the protein to the aptamer.

[1] = target: T1, ICAM-1 extracellular domain (C-terminal His) (Homo sapiens, UniProt P05362 SEQ:1-453); assay: SPR; aptamer immobilized on gold chip; 250 nM ICAM-1; settings: tags: C-terminal His6; Ray-Biotech 228-21751-2
Experimental: as §1, §2
where Rmax is the maximum resonance due to binding observed, and c is the concentration of the injectant. Finally, the dissociation equilibrium constant kD was calculated as the ratio of kd over ka (see Table 2). The low nanomolar kD values obtained for the different aptamers confirm the strong binding affinity of such molecules towards ICAM-1 and validate the aptamer selection process described in Example 1. As used herein, “kd” refers to the dissociation rate, “ka” refers to the association rate, and “kD” refers to the dissociation equilibrium constant.

ICAM-1 (on cells) [2] = target: T2, ICAM-1 (on cells) (Homo sapiens, UniProt P05362 SEQ:28-532); assay: HNEpC cells, FAM-RNA 500 nM, 37 C; qPCR binding higher than to HEK293; settings: tags: endogenous on HNEpC (PromoCell C-21060) or H1-HeLa cells
[3] = target: T1, ICAM-1 extracellular domain (C-terminal …); assay: ITC; 37 C, potassium phosphate; 1.27 nM at 33 C (tighter); settings: tags: C-terminal His6; Ray-Biotech 228-21751-2
Experimental: (§3) Aptamers as disclosed herein were selected to perform at 37° C. in the SELEX selection process. Further, all experiments relating to performance of aptamers executed on cells grown in culture were performed at 37° C. as well, as this was the appropriate temperature for optimal cell growth and corresponds to body temperature. However, the aptamers are intended to function on the inner surface of the nasal cavity in vivo and said nasal cells show a slightly lower average temperature of 33° C. As such it was important to ensure that the aptamers of the present invention perform at both temperatures. Accordingly, binding analysis was executed using isothermal titration calorimetry (ITC) using Nano ITC (Low Volume of TA Instruments) and following user instructions for the NasD-4.1 aptamer (SEQ ID NO: 244) at 37° C. as well as at 33° C. Specific mutations in sequence (SEQ ID NO: 264-270) were tested to analyze the impact of temperature and secondary structure. 600 nM concentration of the NasD-4.1 aptamer was injected in 11 injections of 4.88 uL each into a 100 nM concentration of ICAM-1 receptor protein in a volume of 193 uL. The same concentration of mutant aptamer was injected into buffer, as well as buffer was injected into the same amount of protein as controls. The ITC experiments were performed at 33° C. and 37° C. in potassium phosphate buffer.

[4] = target: T1, ICAM-1 extracellular domain (C-terminal …); assay: ITC; 37 C, potassium phosphate; 9.09 nM at 33 C; settings: tags: C-terminal His6; Ray-Biotech 228-21751-2
Experimental: as §3

ICAM-1 (on cells) [5] = target: T2, ICAM-1 (on cells); assay: HNEpC cells, 2 h, 500 nM; RH-30 below 500 RFU; settings: tags: endogenous on HNEpC (PromoCell C-21060) or H1-HeLa cells; label: FAM in cell assay; hairpin with dangling 5' and 3' ends
Experimental: (§4) Fluorescein amidite (FAM)-conjugated DNA aptamers were incubated at 500 nM onto cells cultured in 24-well plates for 4 hours at 37° C. in 5% CO2. At specific timepoints (0.5h, 1h, 2h, 4h), the cell media was aspirated, and the wells were washed three times with 1× selection buffer. To elute and lyse the cells, 200ul of 6M urea was applied to the well and incubated at 37° C. for 5 minutes. The urea-aptamer solution was transferred and measured in a 96-well microplate reader at 495 nm absorbance. Samples were measured in triplicate. FIGS. 23 to 26 show the results.
Maximal binding can be seen after 2 hours, wherein the absolute number of the truncated sequence bound to HNEpC is 2.5 times of the number of the parent aptamer bound. Binding to RH-30 cells is similar for both aptamers, truncated sequence (SEQ ID NO: 244) and parent sequence (SEQ ID NO: 104) and below 500 RFU.

[6] = target: T1, ICAM-1 extracellular domain (C-terminal …); assay: ITC; 37 C, potassium phosphate; 8.86 nM at 33 C; settings: tags: C-terminal His6; Ray-Biotech 228-21751-2; label: FAM in cell assay; hairpin with dangling 5' and 3' ends
Experimental: as §3

ICAM-1 (on cells) [7] = target: T2, ICAM-1 (on cells); assay: HNEpC cells, 0.5 h, 500 nM; RH-30 hardly detectable; settings: tags: endogenous on HNEpC (PromoCell C-21060) or H1-HeLa cells; label: FAM
Experimental: as §4
Maximal binding of the truncated sequence Nas.D-5 (SEQ ID NO: 245) can be observed after 0.5 hours, wherein more than 2 times of the truncated aptamers bound to HNEpC compared to the parent aptamer. Binding to RH-30 cells was hardly detectable (FIG. 25). […] The absolute number of bound oligonucleotides of the truncated aptamer (SEQ ID NO: 246) is again higher than the number of bound oligonucleotides of the parent sequence (SEQ ID NO: 108).

[8] = target: T1, ICAM-1 extracellular domain (C-terminal …); assay: ITC; 37 C, potassium phosphate; 18.1 nM at 33 C; settings: tags: C-terminal His6; Ray-Biotech 228-21751-2
Experimental: as §3

[9] = target: T1, ICAM-1 extracellular domain (C-terminal …); assay: ITC; 37 C, potassium phosphate; 10 nM at 33 C; settings: tags: C-terminal His6; Ray-Biotech 228-21751-2
Experimental: as §3

[10] = target: T1, ICAM-1 extracellular domain (C-terminal …); assay: ITC; 37 C, potassium phosphate; 14.3 nM at 33 C; settings: tags: C-terminal His6; Ray-Biotech 228-21751-2
Experimental: as §3

[11] = target: T1, ICAM-1 extracellular domain (C-terminal …); assay: ITC; 37 C, potassium phosphate; 37 nM at 33 C (weaker); settings: tags: C-terminal His6; Ray-Biotech 228-21751-2
Experimental: as §3

[12] = target: T1, ICAM-1 extracellular domain (C-terminal …); assay: ITC; 37 C, potassium phosphate; 7.96 nM at 33 C; settings: tags: C-terminal His6; Ray-Biotech 228-21751-2
Experimental: as §3

T2 sequence (P05362 28-532): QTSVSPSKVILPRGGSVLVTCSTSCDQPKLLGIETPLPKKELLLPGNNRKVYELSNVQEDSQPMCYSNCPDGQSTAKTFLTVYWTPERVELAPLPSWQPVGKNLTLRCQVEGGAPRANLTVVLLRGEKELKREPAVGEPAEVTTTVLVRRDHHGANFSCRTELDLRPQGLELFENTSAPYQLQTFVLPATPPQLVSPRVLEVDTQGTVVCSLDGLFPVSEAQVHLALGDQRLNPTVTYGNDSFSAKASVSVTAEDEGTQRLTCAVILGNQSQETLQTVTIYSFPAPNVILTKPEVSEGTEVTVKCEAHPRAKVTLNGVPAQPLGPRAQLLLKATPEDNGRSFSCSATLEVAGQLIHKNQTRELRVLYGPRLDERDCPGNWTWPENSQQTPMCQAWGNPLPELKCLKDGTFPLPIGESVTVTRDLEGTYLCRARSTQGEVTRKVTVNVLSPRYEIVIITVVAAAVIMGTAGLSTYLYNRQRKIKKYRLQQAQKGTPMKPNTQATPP
Sequence of human serum albumin (P02768 25-609, one chain of several): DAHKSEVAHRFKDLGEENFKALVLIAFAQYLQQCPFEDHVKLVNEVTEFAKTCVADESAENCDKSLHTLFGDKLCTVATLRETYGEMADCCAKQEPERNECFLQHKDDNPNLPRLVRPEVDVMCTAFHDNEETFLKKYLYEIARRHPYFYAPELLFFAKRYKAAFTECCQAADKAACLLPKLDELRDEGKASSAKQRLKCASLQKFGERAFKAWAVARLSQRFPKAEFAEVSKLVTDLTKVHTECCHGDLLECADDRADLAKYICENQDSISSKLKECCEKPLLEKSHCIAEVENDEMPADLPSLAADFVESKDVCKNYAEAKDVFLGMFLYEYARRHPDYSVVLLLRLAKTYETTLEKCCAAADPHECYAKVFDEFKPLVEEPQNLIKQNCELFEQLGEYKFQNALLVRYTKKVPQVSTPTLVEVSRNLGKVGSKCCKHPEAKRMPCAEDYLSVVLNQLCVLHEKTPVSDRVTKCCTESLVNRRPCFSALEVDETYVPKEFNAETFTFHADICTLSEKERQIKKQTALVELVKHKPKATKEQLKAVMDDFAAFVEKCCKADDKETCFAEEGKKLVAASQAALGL
T1 sequence (P05362 28-480): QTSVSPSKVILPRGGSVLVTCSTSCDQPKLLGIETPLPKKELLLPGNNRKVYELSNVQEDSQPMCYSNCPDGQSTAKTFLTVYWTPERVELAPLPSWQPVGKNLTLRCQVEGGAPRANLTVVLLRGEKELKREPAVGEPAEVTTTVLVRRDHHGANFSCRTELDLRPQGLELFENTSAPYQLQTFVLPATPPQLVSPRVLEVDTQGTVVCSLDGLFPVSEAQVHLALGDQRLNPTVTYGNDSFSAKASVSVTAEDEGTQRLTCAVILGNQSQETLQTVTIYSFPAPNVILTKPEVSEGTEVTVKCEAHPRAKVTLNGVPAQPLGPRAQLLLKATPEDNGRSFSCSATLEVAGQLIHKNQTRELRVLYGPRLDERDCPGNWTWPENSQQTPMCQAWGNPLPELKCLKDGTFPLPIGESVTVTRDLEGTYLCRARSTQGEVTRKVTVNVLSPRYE

B1: Nas.R-1 (ssRNA)
RNA: GGGUGCAUCGUUUACGCGAUUAGUCUGAUAAACAAAAAGAUUUCGCUAAAAAUCAAUCUGCUGCUGAGGAAGGAUAUGAG
modifications: 2'-F pyrimidines (all C and U)
Human serum albumin
  binding result: no binding
[1]
  Kd: 64.4 nM

B2: Nas.R-2 (ssRNA)
RNA: GGGUGCAUCGUUUACGCAGAUAGCAGCAGGAAUCAAGCGGUAGGAGUCUAGCAGAAGCUGCUGCUGAGGAAGGAUAUGAG
modifications: 2'-F pyrimidines (all C and U)
Human serum albumin
  binding result: no binding
[1]
  Kd: 70.2 nM
ICAM-1 (on cells) [2]
  binding signal: 17 % surface bound

## GTGCTCAGTTGTCAATCTAAGACTGCTGCTGAGGAAG (ssDNA) [NasD-4.1 State 6]
[3]
  Kd: 18.6 nM

## GTGCTCAGTTGTCAAAGAATGACTGCTGCTGAGGAAG (ssDNA) [NasD-4.1 State 7]
[4]
  Kd: 6.77 nM

B3: Nas.R-4 (ssRNA)
RNA: GGGUGCAUCGUUUACGCGCAACAUAAAAAUUUAAAGUGCUCAGUUGUCAAUCUAUGACUGCUGCUGAGGAAGGAUAUGAG
modifications: 2'-F pyrimidines (all C and U)
Human serum albumin
  binding result: no binding
[1]
  Kd: 44.3 nM
ICAM-1 (on cells) [2]
  binding signal: 11 % surface bound

B4: Nas.R-8 (ssRNA)
RNA: GGGUGCAUCGUUUACGCGUAAAAAUUAAAGAGAUUAAGGUCCUUAAGCAGUUUUGUCCUGCUGCUGAGGAAGGAUAUGAG
modifications: 2'-F pyrimidines (all C and U)
Human serum albumin
  binding result: no binding
[1]
  Kd: 28.4 nM
ICAM-1 (on cells) [2]
  binding signal: 12 % surface bound

## GTGCTCAGTTGTCAATCTATGACTGCTGCTGAGGAAG (ssDNA) [Nas.D-4.1]
ICAM-1 (on cells) [5]
  binding signal: 2.5 fold vs parent Nas.D-4
[6]
  Kd: 11.2 nM

## GGGCGCACCGTTTACGCGTAAATCGGTCCGCTATT (ssDNA) [Nas.D-5.1]
ICAM-1 (on cells) [7]
  binding signal: > 2 fold vs parent Nas.D-5

## GTGGTCAGTTGTGAATCTATGACTGCTGCTGAGGAAG (ssDNA) [NasD-4.1 State 1]
[8]
  Kd: 2.83 nM

## GAGCTCAGTTGTCAATCTATGACTGCTGCTGAGGAAG (ssDNA) [NasD-4.1 State 2]
[9]
  Kd: 102 nM

## GTGCTCACTTGTCAATCTATGACTGCTGCTCAGGAAG (ssDNA) [NasD-4.1 State 3]
[10]
  Kd: 40.4 nM

## GTGCTCACTTGTCAATCTATGACTGCTGCTGAGTAAG (ssDNA) [NasD-4.1 State 4]
[11]
  Kd: 6.39 nM

## GTGCTCTCTTGTCAATCTATGACTGCTGGAGAGGAAG (ssDNA) [NasD-4.1 State 5]
[12]
  Kd: 5.14 nM
